Results: PMC9317633, “Antifungal Effect of Penicillamine Due to the Selective Targeting of L-Homoserine O-Acetyltransferase” (International Journal of Molecular Sciences, 2022)

How the values were obtained:
CaMet2NHp [1] = biological target: T1, CaMet2NHp (Candida albicans, UniProt Q5A948); test: inhibition, DTNB end-point assay of CoA formed, […] nm; assay type: biochemical
T1 construct: gene MET2; full length with N-terminal oligo-His tag (kept), ~45 kDa; E. coli Rosetta (DE3) pLysS; dimer only in model
T1 sequence (Q5A948 1-409): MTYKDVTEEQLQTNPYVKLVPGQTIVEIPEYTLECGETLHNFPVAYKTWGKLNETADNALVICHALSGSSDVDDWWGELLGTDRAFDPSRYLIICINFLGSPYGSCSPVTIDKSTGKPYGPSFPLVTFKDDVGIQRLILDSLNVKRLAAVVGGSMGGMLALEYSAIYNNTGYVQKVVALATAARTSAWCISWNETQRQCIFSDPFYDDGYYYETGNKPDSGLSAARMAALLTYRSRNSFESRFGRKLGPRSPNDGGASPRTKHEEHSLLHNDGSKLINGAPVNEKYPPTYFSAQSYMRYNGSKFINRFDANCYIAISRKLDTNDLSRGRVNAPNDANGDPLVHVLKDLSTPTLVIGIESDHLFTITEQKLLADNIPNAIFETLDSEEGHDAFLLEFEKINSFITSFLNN

CaMet2NHp [2] = biological target: T1, CaMet2NHp; test: as above; assay type: biochemical; settings: read-out: % inhibition at 25 mM
purified protein [3] = substrate: CC(=O)SCCNC(=O)CCNC(=O)[C@H](O)C(C)(C)COP(=O)(O)OP(=O)(O)OC[C@H]1O[C@@H](n2cnc3c(N)ncnc32)[C@H](O)[C@@H]1OP(=O)(O)O; test: purified protein; assay type: biochemical, Candida albicans; settings: 10 mM L-Hom, pH 8.0 phosphate, 100 mM NaCl, 1 mM EDTA, 37 °C
purified protein [4] = substrate: N[C@@H](CCO)C(=O)O; test: purified protein; assay type: biochemical, Candida albicans; settings: 3.5 mM AcCoA, pH 8.0 phosphate, 100 mM NaCl, 1 mM EDTA, 37 °C

CC(C)(S)[C@H](N)C(=O)O [L-Pen]
IC50 (CaMet2NHp [1]): ~2 mM

CC(C)(S)[C@@H](N)C(=O)O [D-Pen]
IC50 (CaMet2NHp [1]): ~2 mM

CSCC[C@H](N)C(=O)O [L-Met]
inhibition at 25000 µM (CaMet2NHp [2]): 17%

B1: CaMet2p (Candida albicans SC5314) (protein)
chain: MTYKDVTEEQLQTNPYVKLVPGQTIVEIPEYTLECGETLHNFPVAYKTWGKLNETADNALVICHALSGSSDVDDWWGELLGTDRAFDPSRYLIICINFLGSPYGSCSPVTIDKSTGKPYGPSFPLVTFKDDVGIQRLILDSLNVKRLAAVVGGSMGGMLALEYSAIYNNTGYVQKVVALATAARTSAWCISWNETQRQCIFSDPFYDDGYYYETGNKPDSGLSAARMAALLTYRSRNSFESRFGRKLGPRSPNDGGASPRTKHEEHSLLHNDGSKLINGAPVNEKYPPTYFSAQSYMRYNGSKFINRFDANCYIAISRKLDTNDLSRGRVNAPNDANGDPLVHVLKDLSTPTLVIGIESDHLFTITEQKLLADNIPNAIFETLDSEEGHDAFLLEFEKINSFITSFLNN
notes: E. coli BL21 Star (DE3); dimer only in model
Km (purified protein [3]): 0.906 ± 0.119 mM
Vmax (purified protein [3]): 20.1 µmol/min/mg
kcat (purified protein [3]): 15.2 ± 0.572 s⁻¹
kcat/Km (purified protein [3]): 16800 M⁻¹ s⁻¹
Km (purified protein [4]): 0.405 ± 0.050 mM
Vmax (purified protein [4]): 17.1 µmol/min/mg
kcat (purified protein [4]): 13 ± 0.405 s⁻¹
kcat/Km (purified protein [4]): 32100 M⁻¹ s⁻¹

B2: CaMet2NHp (Candida albicans SC5314) (protein)
chain: MTYKDVTEEQLQTNPYVKLVPGQTIVEIPEYTLECGETLHNFPVAYKTWGKLNETADNALVICHALSGSSDVDDWWGELLGTDRAFDPSRYLIICINFLGSPYGSCSPVTIDKSTGKPYGPSFPLVTFKDDVGIQRLILDSLNVKRLAAVVGGSMGGMLALEYSAIYNNTGYVQKVVALATAARTSAWCISWNETQRQCIFSDPFYDDGYYYETGNKPDSGLSAARMAALLTYRSRNSFESRFGRKLGPRSPNDGGASPRTKHEEHSLLHNDGSKLINGAPVNEKYPPTYFSAQSYMRYNGSKFINRFDANCYIAISRKLDTNDLSRGRVNAPNDANGDPLVHVLKDLSTPTLVIGIESDHLFTITEQKLLADNIPNAIFETLDSEEGHDAFLLEFEKINSFITSFLNN
notes: full length with N-terminal oligo-His tag (kept), ~45 kDa; E. coli Rosetta (DE3) pLysS; dimer only in model
Km (purified protein [3]): 1.13 ± 0.150 mM
Vmax (purified protein [3]): 19.8 µmol/min/mg
kcat (purified protein [3]): 15 ± 0.635 s⁻¹
kcat/Km (purified protein [3]): 13300 M⁻¹ s⁻¹
Km (purified protein [4]): 0.578 ± 0.118 mM
Vmax (purified protein [4]): 17.2 µmol/min/mg
kcat (purified protein [4]): 13.1 ± 0.723 s⁻¹
kcat/Km (purified protein [4]): 22700 M⁻¹ s⁻¹
